According to the RNAGym collection of RNA variant scans (doi:10.7554/elife.80360):

B1: Hammerhead Ribozyme (parent)
chain: ACCGGAUGUGCUUUCCGGUCUGAUGAGUCCGUGAGGACGAAACAG

Variants of: B1
Test: self-cleavage, relative activity (ratio to wild type); higher = more cleavage; co-transcriptional

Going from ACCGGAUGUGCUUUCCGGUAUGAUGAGUCCGUUAGGACGAAACAG to ACCGGAUGUGCUUUCCGGUAUGAUGAGUCCGUAAGGACGAAACAG, the self-cleavage rises from 0.548 to 0.651.

Going from ACCGGAUGUGCUUUCCGGUGUGGUGAGUCCGUGAGGACGAAACAG to ACCGGAUGUGCUUUCCGGUGUGCUGAGUCCGUGAGGACGAAACAG, the self-cleavage falls from 0.386 to 0.271.

Compared with ACCGGAUGUGCUUUCCGGUGUGUUGAGUCCGUGAGGACGAAACAG, ACCGGAUGUGCUUUCCGGUAUGAUGAGUCCGUGAGGACGGAACAG is higher in self-cleavage: 0.317 for the first, 0.326 for the second.

Compared with ACCGGAUGUGCUUUCCGGUAUGAUGAGUCCGUGAGGACGUAACAG, ACCGGAUGUGCUUUCCGGUAUGAUGAGUCCGUGAGGACGCAACAG is lower in self-cleavage: 0.382 for the first, 0.33 for the second.

Going from ACCGGAUGUGCUUUCCGGUAUGAUGAGUCCGUGAGGACGAAACGG to ACCGGAUGUGCUUUCCGGUAUGAUGAGUCCGUGAGGACGAAACCG, the self-cleavage falls from 0.848 to 0.366.

Compared with ACCGGAUGUGCUUUCCGGUAUGAUGAGUCCGUGAGGACGAAACUG, ACCGGAUGUGCUUUCCGGUAUGAUGAGUCCGUGAGGACGAAACAG is higher in self-cleavage: 0.323 for the first, 0.541 for the second.

ACCGGAUGUGCUUUCCGGUGUGAUGAGUCCGUGAGGACGAAACAG and ACCGGAUGUGCUUUCCGGUAUGAUGAGUCCGUGGGGACGAAACAG are the same in self-cleavage: 0.341 for the first, 0.341 for the second.

Compared with ACCGGAUGUGCUUUCCGGUAUGAUGAGUCCGUGCGGACGAAACAG, ACCGGAUGUGCUUUCCGGUAUGAUGAGUCCGUGUGGACGAAACAG is higher in self-cleavage: 0.34 for the first, 0.413 for the second.

First: ACCGGAUGUGCUUUCCGGUGUGAUGAGUCCGUGAGGUCGAAACAG
Second: ACCGGAUGUGCUUUCCGGUGUGAUGAGUCCGUGAGGCCGAAACAG
The self-cleavage of the first is lower: 0.272 for the first, 0.298 for the second.

Going from ACCGGAUGUGCUUUCCGGUGUGAUGAGUCCGUGAGGGCGAAACAG to ACCGGAUGUGCUUUCCGGUAUGAUGAGUCCGUGAGGACGAAACAU, the self-cleavage rises from 0.3 to 0.357.

Going from ACCGGAUGUGCUUUCCGGUAUGAUGAGUCCGUGAGGACGAAACAA to ACCGGAUGUGCUUUCCGGUAUGAUGAGUCCGUGAGGACGAAACAC, the self-cleavage rises from 0.396 to 0.414.

First: ACCGGAUGUGCUUUCCGGUAUGAUCAGUCCGUGAGGACGAAACAG
Second: ACCGGAUGUGCUUUCCGGUAUGAUAAGUCCGUGAGGACGAAACAG
The self-cleavage of the first is lower: 0.287 for the first, 0.309 for the second.

Compared with ACCGGAUGUGCUUUCCGGUAUGAUUAGUCCGUGAGGACGAAACAG, ACCGGAUGUGCUUUCCGGUAUGAUGAGUCCGUGAGGACGAAAAAG is lower in self-cleavage: 0.619 for the first, 0.321 for the second.

Going from ACCGGAUGUGCUUUCCGGUAUGAUGAGUCCGUGAGGACGAAAGAG to ACCGGAUGUGCUUUCCGGUAUGAUGAGUCCGUGAGGACGAAAUAG, the self-cleavage rises from 0.25 to 0.342.

First: ACCGGAUGUGCUUUCCGGUAUGAUGAGUCCGUGAGUACGAAACAG
Second: ACCGGAUGUGCUUUCCGGUAUGAUGAGUCCGUGAGAACGAAACAG
The self-cleavage of the first is lower: 0.306 for the first, 0.33 for the second.

Compared with ACCGGAUGUGCUUUCCGGUAUGAUGAGUCCGUGAGCACGAAACAG, ACCGGAUGUGCUUUCCGGUGUGAUGAGUCCGUGAGGACGAAACCG is lower in self-cleavage: 0.313 for the first, 0.278 for the second.

First: ACCGGAUGUGCUUUCCGGUGUGAUGAGUCCGUGAGGACGAAACGG
Second: ACCGGAUGUGCUUUCCGGUGUGAUGAGUCCGUGAGGACGAAACUG
The self-cleavage of the first is higher: 0.629 for the first, 0.309 for the second.

First: ACCGGAUGUGCUUUCCGGUAUGAUGAGUCCAUGAGGACGAAACAG
Second: ACCGGAUGUGCUUUCCGGUAUGAUGAGUCCUUGAGGACGAAACAG
The self-cleavage of the first is higher: 0.576 for the first, 0.475 for the second.

Compared with ACCGGAUGUGCUUUCCGGUAUGAUGAGUCCCUGAGGACGAAACAG, ACCGGAUGUGCUUUCCGGGCUGAUGAGUCCGGGAGGACGAAACAG is lower in self-cleavage: 0.412 for the first, 0.371 for the second.

Compared with ACCGGAUGUGCUUUCCGGGCUGAUGAGUCCGCGAGGACGAAACAG, ACCGGAUGUGCUUUCCGGGCUGAUGAGUCCGAGAGGACGAAACAG is lower in self-cleavage: 0.449 for the first, 0.366 for the second.

Compared with ACCGGAUGUGCUUUCCGGUAUGUUGAGUCCGUGAGGACGAAACAG, ACCGGAUGUGCUUUCCGGUAUGGUGAGUCCGUGAGGACGAAACAG is lower in self-cleavage: 0.36 for the first, 0.27 for the second.

First: ACCGGAUGUGCUUUCCGGUAUGCUGAGUCCGUGAGGACGAAACAG
Second: ACCGGAUGUGCUUUCCGGGCUGACGAGUCCGUGAGGACGAAACAG
The self-cleavage of the first is higher: 0.353 for the first, 0.255 for the second.

Going from ACCGGAUGUGCUUUCCGGGCUGAGGAGUCCGUGAGGACGAAACAG to ACCGGAUGUGCUUUCCGGUGUGAUGAGUCCGUGAGGACGUAACAG, the self-cleavage rises from 0.323 to 0.355.

Going from ACCGGAUGUGCUUUCCGGUGUGAUGAGUCCGUGAGGACGGAACAG to ACCGGAUGUGCUUUCCGGUGUGAUGAGUCCGUGAGGACGCAACAG, the self-cleavage falls from 0.324 to 0.322.

Compared with ACCGGAUGUGCUUUCCGGUAUGAUGAGUCGGUGAGGACGAAACAG, ACCGGAUGUGCUUUCCGGUAUGAUGAGUCUGUGAGGACGAAACAG is higher in self-cleavage: 0.353 for the first, 0.498 for the second.

Going from ACCGGAUGUGCUUUCCGGUAUGAUGAGUCAGUGAGGACGAAACAG to ACCGGAUGUGCUUUCCGGUAUGAUGAGUCCGUGAGGACGAUACAG, the self-cleavage rises from 0.286 to 0.335.

Compared with ACCGGAUGUGCUUUCCGGUAUGAUGAGUCCGUGAGGACGACACAG, ACCGGAUGUGCUUUCCGGUAUGAUGAGUCCGUGAGGACGAGACAG is lower in self-cleavage: 0.388 for the first, 0.309 for the second.

Compared with ACCGGAUGUGCUUUCCGGUGUGAUGGGUCCGUGAGGACGAAACAG, ACCGGAUGUGCUUUCCGGUGUGAUGUGUCCGUGAGGACGAAACAG is lower in self-cleavage: 0.302 for the first, 0.29 for the second.

With ACCGGAUGUGCUUUCCGGUGUGAUGCGUCCGUGAGGACGAAACAG the self-cleavage was 0.404.
